The values below come from the DeepSol protein solubility set.

A short description of this data set: soluble on expression in E. coli; label from the status in PepcDB or PDB records.
Consider “MGSDKIHHHHHHLAKRKNHAQAIETTGANLGFEPQLWQTANALRGSMDAAEYKHVVLGLIFLKYISDAFEEHRERLQNIPNADPEDPDEYRADNVFWVPPDARWVELRNNARQPNIGELIDQAMIAVERDNPSLKGVLPKDYARPALDQQRLGQLIDLVSNIPVGTASARSKDVLGRVYEYFLSQFASAEGKKGGEFYTPRCVVRLLVEMLEPYQGRVYDPCCGSAGMFIQSVEFIEAHATGNGNGSRARARISIYGQELNYTTWRLAKMNLAIRGIDGRIEQGDTFRNDRFPDLKADYILANPPFNMKEWGGEQLRNDKRWQYGIPPVGNANFAWVQHIVHHLAPAGVAGFVLANGSMSSNQSGEGEIRRKLIEADLVDCMVALPGQLFYSTQIPACLWFLARNRNNGKFRDRRKQILFIDARRLGRMVDRIHRELTDEEIERIACTYHAWRGESDAGEYRDIPGFCKSASLEDVRKHGYVLTPGRYVGSEVREDDDEPFAEKMQWLVAQLREQQAEAAKLDEAIVANLQELGFWEQKR”, for which the “soluble on expression in E. coli” value is “not soluble”.
Take “MSLSWADKYRPKNIDDVILNSEIRKQITEWIESWKEGIPKKRSLILYGSQGTGKTTTAYAIAGTFGVPVVEMNASDQRNRDSMRGTALMASLYGDLFVESAKRPSKVILIDEADNMFERGGDTGGIYELSKIIKNSANPIVITMNDIFEFRKKNYASDVISASLTIEMKQYGRKLDKNYNEFRRNIKARLIFILKNEGYTLPDQVVDRIIDRNMPDIRSMINDLEASAVSGTNISDEGHHHHHH”: the “soluble on expression in E. coli” value was “soluble”.
As to “GAMDPMKAKRVQAKIEMEFPSEDVAKVVYEAVLYEHLSVPYRRSEIDFKLEGKKIILDIKATDSSALRGTVNSYLRWIKAAIDVIEV”, the “soluble on expression in E. coli” value is “soluble”.
Consider “NLDALREVLECPICMESFTEEQLRPKLLHCGHTICRQCLEKLLASSINGVRCPFCSKITRITSLTQLTDNLTVLK”, for which the “soluble on expression in E. coli” value is “soluble”.
For the sequence “MQDFLWKSCAIMGTMKLRIEQDDQYKELEIHITYGQKDKLIERILGFLETVDRQLSCYQEGRKYLVNFSDIYYIESVDKKTFVYLADEIYQTDLRLYQLLHDLQHDGFVQISKSCLLNINVLENIRPLFNSRMEATLLNGERVIVNRRYLPDVKEALKGIQ”, the “soluble on expression in E. coli” value was “not soluble”.
Regarding “MKVLEERNAFLSDYEVLKFLTDLEKKHLWDQKSLAALKKSRSKGKQNRPYNHPELQGITRNVVNYLSINKNFINQEDEGEERESSGAKDAEKSGISKMSDESFAELMTKLNSFKLFKAEKLQIVNQLPANMVHLYSIVEECDARFDEKTIEEMLEIISAYA”, the “soluble on expression in E. coli” value is reported as “soluble”.
As for “MSSKIFCKSWGAEYIAADVVRFRLWATGQQKVMLRLAGKDQEMQANGDGWFTLDVAGVTPGTEYNFVLSDGMVVPDPASRAQKTDVNGPSYVVDPGSYTWRNTGWKGSRWEQAVVYEMHTGTFTPEGTFRAAIAKLPYLAELGVTVIEVMPVAQFGGERGWGYDGVLLYAPHSAYGTPDDFKAFIDAAHGYGLSVVLDIVLNHFGPEGNYLPLLAPAFFHKERMTPWGNGIAYDVDAVRRYIIEAPLYWLTEYHLDGLRFDAIDQIEDSSARHVLVEIAQRIREDITDRPIHLTTEDSRNIISLHPRDQDGNAPLFTAEWNDDFHNAVHVFATGETQAYYNDFADAPEKHLARALAEGFAYQGEISPQTGEPRGVKSTGQPPVAFVDFIQNHDQVGNRAQGDRLITLAGAERTKVLLATLLLSPHIPLLFMGEEYGESRPFLFFTDFHGDLARAVREGRAKEFADHAGENVPDPNAPETFQRSKLNWKQQHSEEGKAWLAFTRELLLLRQKHIVPLLSAARESSGTVLQTAPGFIAVSWRFPGGTLSLALNISATTVLLPDLPGKTLFAWPNESTGSLSQHSLIVRLAQGESAS”, the “soluble on expression in E. coli” value is recorded as “not soluble”.
As to “MGSDKIHHHHHHMYGIVIVEDEELERQALRTILTENIDGIRILGEARTGTEAVALIDSCEIDLMLVDINIPNLNGLEVIRHLRDRHADTKVIITTAYDYFETTRTAIQLKVDEYLLKPIRTQALVTTIQSCIGQLGAGRQCRELVGRIADLVEQDGYQEGVTLVRRHIEWICTQRGHVPRDLILDFAGALVALARDKGLRLPDALTQQIGQLRTMPLDAQTGYQALGTFLGVVDLLFDVTGERFGYSSNTVKKVLNYIERNLTKRITLEDAAEYANISPSYLSRMFKKTLNVNFISYLTTRRIELAKETLIGTERPITAISQELSYSDVNYFCKSFKKEVGVSPTEYRRQSRLAQGAPPPREAALATG”, the “soluble on expression in E. coli” value is “not soluble”.
“MSLSETTQTSQSLYQALWNSADVLRSKMDANDYKSYLLGMVFYKYLSDKMLFFVAETMEEETESLDEALAVYRKYYEDEETHEDLLAVITDEMSYAIHPDLTFTALVERVNDGSFQLEDLAQGFRDIEQSDELYENLFEDIDLYSKKLGATPQKQNQTVAAVMKELAVLDVAGHAGDMLGDAYEYLIGQFATDSGKKAGEFYTPQPVAKLMTQIAFLGREDKQGFTLYDATMGSGSLLLNAKRYSRQPQTVVYFGQELNTSTYNLARMNMILHGVPIENQFLHNADTLDEDWPTQEPTNFDGVLMNPPYSAKWSASSGFMDDPRFSPFGKLAPKSKADFAFLLHGYYHLKQDNGVMAIVLPHGVLFRGNAEGTIRKALLEEGAIDTVIGLPANIFFNTSIPTTVIILKKNRTNRDVYFIDASKEFDKGKNQNIMTDAHIEKILNAYKSREDIDKFAHLASFEEIVENDYNLNIPRYVDTFEEEEVEPLTEIVAKINQTNATIESQTASLLDMLGQLHGTTPEADEELKAFVKAFKGEGHHHHHH”: the “soluble on expression in E. coli” value is listed as “soluble”.
For “MENKTIQLFGNITGGPIELHSQTGSRRRRDTVENAGKSAWDTAGDVGKSVIDTVENAGAAVKNGASDLDEKLMGSG”, the “soluble on expression in E. coli” value is “not soluble”.
Under “MSLPLIIPENIPAYELLKEHAFIMGLRRAKHQDIRPQEILIVNLMPKKIETENQILSLLANSPLQVNITLLATTSYVGKNTPFTHLEKFYKGLEEVKKHKFDGAIVTGAPVEQMDFEKVAYWEELLEIFDFLKQNVTSSMYICWGAMAALKYFYGVDKISLDKKIFGVYKHDKVSPDLLLTNLDEKVLMPHSRHSSMDEEQILALQKQGKLKILLRNKKIGSALLRDEKNIFILGHLEYFKETLHQEYVRDNFIQKAKNYYDKKGNIKYNWRSNANTIFANWLNYDVYQSTPFVLEGHHHHHH” stands “soluble”.
Regarding “MAHHHHHHMGIYIFCLFPKGGRESKWGKPTITTKKVQGMPFPHPSHHHHHYHQKQQKTHHCHPRCTLVFLRQARAHKAITPPDVQRRTQRLNAQGKTTKKKSYDDGPPFFLFEKKKKRKAERHKEKGEKEGKGNVNTYRIVKEKEKVNKYLIYFYNNNNNYYYTYVCVYIHTTT”, the “soluble on expression in E. coli” value is reported as “not soluble”.
For “MGSDKIHHHHHHMVNLMNINSHYLHNNSHECVSLSVRSKGTTQCPDIKVTQKAHIELGTLATPQLVRRRSGRYTIRLRLKGHAKPFISVSTRTTNRSIAVMRQKELATTAKAFLLDNPEVSKEELREHLKAMAEWLLTEATDDYWNGLDIAWLEDAKVNLRNIAATERLSAVQQTHIVESLKVLEAGQKRVDYGDATGLLDFVADDNTDSANNHTQGSTIGVLSSNLENQQGGSSSVFTYDDLVSMTLAEKITTLATSSYRDLQSSFSTVRGYAPVDLMDRSAWLKARDELLANGKAAITVNKLFVKVRMAIDYALMNGHLQGRNPIEKMKLTKDAESKRRAMTDEEIQMVLKAAESAPEARRWAVLVSIITGARSAEVAQLTKENIVVVDGITCIDINDDEGKKVKNKHSIRLIPLIDGAYGFNLEAFLKFVNTREPKTAIFGMTAGTYTAYFGRSIKGSIDALKDTKNVCMHSLRHSLTGKLKAAGVPLADAQGVLGHSSQSITYDLYGKGHAIGRLSDALRLALSGTGQ”, the “soluble on expression in E. coli” value is on record as “not soluble”.
Consider “MSLCRVLAVKPSSYYDWMNRNISDQQIHRNQCELLVKAAHTETRERYGVDRLQAHLRQQGHYVSQYMIRSIKEEYGIKCRRHKRFKMTTNSNHNKLVYLNVLDQQFDAKHPNESWVSDITYIWTNEGWLYLAGVKDLYTKELVGYAINKRMTADLVCRALNMAIKNKRPRQGLIVHSDRGSQYCSHAYHKIIEQHQFTGSMSAKGNCFDNAPIESFWGVLKNELVYHQDYKTRFEAISDITQYIELEYNEERLAKHCFAATQDKSCARSGAREGHHHHHH”, for which the “soluble on expression in E. coli” value is given as “soluble”.
Under “MGSDKIHHHHHHMKLSMPRFDQAPVLVVGDVMLDRYWHGGTSRISPEAPVPVVKVDQIEDRPGGAANVALNIAALGAPASLVGVTGDDEAAESLTNSLKAAGVVARFQRIADQPTIVKLRVMSRHQQLLRIDFEEPFNTDPLALSAEVYSLLDGIKVLVLSDYGKGALKNHQALIQAARKRGIPVLADPKGKDFAIYRGASLITPNLSEFEAIVGHCEDEAQLVTKGAQLMQELDLGALLVTRGEHGMTLLRPDQQALHLPARAREVFDVTGAGDTVISTLAAAIAAGEELPHAVALANLAAGIVVGKLGTAAISAPELRRAIQREEGSERGVLGLEQLLLAVDDARAHKEKIVFTNGCFDILHAGHVTYLEQARAQGDRLIVAVNDDASVSRLKGPGRPINSVDRRMAVLAGLGAVDWVISFPEGTPENLLTHVKPDVLVKGGDYGIDQVVGADIVQAYGGEVRVLGLVENSSTTAIVEKIRGQG” stands “not soluble”; under “MGSDKIHHHHHHMAEAQLSLNLDIKHDASLSDFSGPGWMSIIDAVRQLHVGLIGQLYLFGSPATGKSHLLSAICESFIEMDKSAICLSLNELIHTDVNVLSSLENFSLIAIDDLEVIEQNSQWQEALFHLINRSREGQRQLLFAANKPASELPFQLRDLLTRLAQAPSFKVPTGHDLADREALLQSILRRRGWQFDERIANYLLTEGPHRIGAMMEVLNYIQPMFSNLGRSNISKAVIGDALRTIDEQTLAAELADIAQESQVDNDAADQDQHSQHTMPLDF”, “not soluble”; under “LTPLAQMAEGMERQDVSIDKWTLHAKQNLSLTEKEFYQKVQRLKQEYRQYDWVIAREDKMIKAIGTYTDKKNRTSFRLQLVTTLKKHNPTSYLLYEQMSLETPDSWNDTYEQFERETLGIFQEKVVIFTCLNGHLDDNMNIVLQKKANQLLNEFQARSVEHVVEPNFVSISAFTDEWEEYIMTSKHKMNLQIALRSAGMGGKHTVTVGTPIVTTEY”, “soluble”.
Under “MEKTPAETTAVSAGNVPRDSIPCITNVSADTRGRTRPSRPATVPQRRPARIGHFRRRSASLSFLDWPDGSVTEGVRTTSASVAASAARFDEIRRRRQSINDEMKERTLEDALAVELVNETFRCSVTSDARKDLQKLVRRVSGTVLRLSWPNGWFFTYCDLLRVGYFGHLNIKGLEKTFLCCDKFLPGLEHHHHHH” stands “not soluble”; under “MSLEDCRISRVELYALADENAPPIPWADNQEPLLYTNNIVRLFTEDGTEGLGATMSYTENFFDRCIIESLRTIVPGLIGKNPLMTQELNNWLGARCTWGGLPAKSPIDIAAWDIKGKKAGMPLYMLLGGARTKIKSYASTPMFDTVEEYFPYIDDCIEHGFTAIKLHCYCVYDKDVALVEAVEAKYGTSGIRFMLDTAGFYTPEQAMKMAKWMERHNWEWLEAPVSDYDFKTYQRLVANTDLEISSHGNCLLTLQEVTHALSTGMWSDVRQDATVCGGITQLNKCFAIAAGHSKNLEIQSMGYTLTQAANLHVALAHDNCNFFEQFYPYEAFELASKTQIRTDKEGYVHAPAGNGLGVEMDWDAVKEASFASYVFEEGHHHHHH”, “soluble”.
